From patent US20240043505A1 (UNIVERSITY OF PITTSBURGH OF THE COMMONWEALTH SYSTEM OF …, published 2024)

B1: Nb36 (VHH)
VHH: HVQLVESGGGLVQAGGSLTLTCAASGRTFSSETMDMGWFRQAPGKEREFVAADSWNDGSTYYADSVKGRFTISRDSAKNTLYLQMNSLKPEDTAVYYCAAETYSIYEKDDSWGYWGQGTQVTVSS
B2: Nb34 (VHH)
VHH: DVQLVESGGGLVQAGGSLRLSCAASGFTFSNYVMYWGRQAPGKGREWVSGIDSDGSDTAYASSVKGRFTISRDNAKNTLYLQMNNLKPEDTALYYCVKSKDPYGSPWTRSEFDDYWGQGTQVTVSS
B3: Nb105 (VHH)
VHH: HVQLVESGGGLVQAGGSLRLSCAVSGRTFSTYGMAWFRQAPGKERDFVATITRSGETTLYADSVKGRFTISRDNAKNTVYLQMNSLKIEDTAVYYCAVRRDSSWGYSRDLFEYDYWGQGTQVTVSS
B4: Nb95 (VHH)
VHH: QVQLVESGGGLVQAGGSLRLSCAASGRTFSSYSMGWFRQAQGKEREFVATINGNGRDTYYTNSVKGRFTISRDDATNTVYLQMNSLKPEDTAIYYCAADKDVYYGYTSFPNEYEYWGQGTQVTVSS
B5: Nb89 (VHH)
VHH: HVQLVESGGGLVQAGGSLRLSCAASGGTFTTFRMAWFRQTPGKEREFVAASSWGFVNYADPVKGRFTISRDNAKNTVYLEMSSLKTEDTAVYYCAARNPGTGQYDYWGQGTQVTVSS
B6: Nb92 (VHH)
VHH: HVQLVESGGGLVQAGGSLRLSCAASGRTFSAYGMGWFRQAPGKEREFVAGIARSGSEYYGDSVKGRFTISRDNAKNTVYLQMASLKAEDTGVYYCAADPTILYHALSQRTQNYRYWGPGTQVTVSS
B7: Nb83 (VHH)
VHH: HVQLVESGGGLVQPGGSLRLSCAASGRSFNSYLMGWFRQAPGKEREFVAWISGSPHDIIRYRDSVKDRFTISRDNAKNTVYLQMNSLKPVDTAVYYCAVGSLRVGSFSPDYWGQGTQVTVSS
B8: Nb93 (VHH)
VHH: EVQLVESGGGLVQPGGSLRLSCAASGFTFSSYAMSWVRQAPGKGREWVAGITPGSGTFYADSVKGRFTISRDNAKNTLSLEINSLKPEDTALYYCAKCRQEFSWDFSSRDPDDFDYWGQGTQVTVSS
B9: Nb10 (VHH)
VHH: DVQLVESGGGLVQAGGSLKLSCTASESTFNFNHIDWYRQAPGKQRESVAVITNTDVTNYADSVKGRFTISRDNAKNTVYLQMNSLKPEDTAVYLCNAWRFGPTGVKVDYWGQGTQVTVSS
B10: Nb99 (VHH)
VHH: QVQLVESGGGLVQTGGSLRLSCAASGSTRSIWYSGWYRQAPGKQRELVASLTSGGTTYYPDSMKGRFTISGSSGLNMVYLQMNSLRPEDTAVYSCNVRTGSGVYWGQGTQVTVSS
B11: Nb91 (VHH)
VHH: HVQLVESGGGLVQPGGSLRLSCAASGLTLNDYAIGWFRQAPGKEREGVSCISSSDGTTYYADSVKGRFTISRDNAKNTVYLQMNSLKPEDTAVYYCATDIAPFYCSWPLRTRLVEYWGQGTQVTVSS
B12: Nb102 (VHH)
VHH: QVQLVESGGGLVQAGGSLRLSCAASGRTFSNSHMGWFRQAPGKEREFVAVISRSGGSTLYADSVKGRFTISRDNAKNTVYLQMNSLKPEDTAVYYCAASRTAGLTSNRSLYDYWGRGTQVTVSS
B13: Nb107 (VHH)
VHH: HVQLVESGGGLVQAGGSLRLSCAASGRAIGIHRMAWFRQAPGKERAFVAAIQWTGDMPTYADSLKGRFTISADNAKNTVSLQMTSLKPDDTAVYYCAARSATTALYDYWGQGTQVTVSS
B14: Nb94 (VHH)
VHH: QVQLVESGGGLVQAGGSLRLSCTASGGTFRSFTMAWFRQAPGKEREFVATLSWTGVGTYYADSVKGRFTISRDIAKNTVYLEMNSLIPEDTAVYYCAASPYTYSLLSRTGDYGYWGQGTQVTVSS
B15: Nb9 (VHH)
VHH: HVQLVESGGGLVQTGGSLRLSCAFSGYTFSTFPTAWFRQAPGKEREFVAGIRWNGGSRDYTEYADFVKGRFTISRDNAKNMIYLQMISLKPEDTALYYCAASHGVVDGTSVNGYRYWGQGTQVTVSS
B16: Nb90 (VHH)
VHH: HVQLVESGGGLVQAGGSLRLSCAVSGRTVSSYVMGWFRQAPGKEREFVAGIGRTGMTITADSVKGRFTISRDNAKNLVYLQMNSLKSEDTAVYWCAAGVRDFAPRIDSYDYWGQGTQVTVSS
B17: Nb82 (VHH)
VHH: DVQLVESGGGLVQAGGSLGLSCAASGSIFRLTAMGWYRQAPGKQRDLVTTITSAGIPHYADSVKGRFTISRDNAKNTVYLQMNGLKPEDTAVYYCYANTLNSQLLPRAYWGQGTQVTVSS
B18: Nb97 (VHH)
VHH: HVQLVESGGGLVQAGGSLRLSCAAPGRTFSTSAMGWFRQAPGKEREFVAAIDWSNTNIHYADTVKGRFTISTDTAKNTVYLQMNNLKPEDTAVYYCAQGGWGLTQPISVDYWGKGTQVTVSS
B19: Nb12 (VHH)
VHH: HVQLVESGGGLVQAGGSLRLTCAASGGTFSTSTMDMGWFRQAPGKEREFVAVDSWNDGRAYYADSVKGRFTISRDSAKTTLYLQMNSLKPEDTAVYYCAARTERGVYDYWGRGTQVTVSS
B20: Nb96 (VHH)
VHH: HVQLVESGGGLVQAGDSLRLSCAASGRDFSSYAMGWFRQAPGKEREFVGVISSGDVGTFYEDSVKGRFTISRDDAKNTVDLQMNSLKPEDTAVYYCAAALYVTSTRGSYAYWGQGTQVTVSS
B21: Nb21 point mutant R31D (VHH)
VHH: QVQLVESGGGLVQAGGSLRLSCAVSGLGAHDVGWFRRAPGKEREFVAAIGANGGNTNYLDSVKGRFTISRDNAKNTIYLQMNSLKPQDTAVYYCAARDIETAEYTYWGQGTQVTVSS

Biological target: T1, SARS-CoV-2 spike receptor-binding domain (RBD) (SARS-CoV-2, UniProt P0DTC2 319-541)
Assay: not given

B1 was tested, and the “EC50 (read off the curve)” value was ~3 nM.

Biological target: K417N
Assay: not given

First: B2
Second: B3
The “binding affinity fold change relative to RBD WT” value of the first is lower: -1.96 fold for the first, -1.45 fold for the second.

Compared with B1, B4 is higher in “binding affinity fold change relative to RBD WT” value: -2.94 fold for the first, 1.11 fold for the second.

Biological target: N439K
Assay: not given

First: B2
Second: B3
The “binding affinity fold change relative to RBD WT” value of the first is higher: 1.18 fold for the first, 1.06 fold for the second.

First: B1
Second: B4
The “binding affinity fold change relative to RBD WT” value of the first is higher: 1.43 fold for the first, -2.19 fold for the second.

Biological target: A475V
Assay: not given

Going from B2 to B3, the “binding affinity fold change relative to RBD WT” value falls from -1 fold to -1.1 fold.

Going from B1 to B4, the “binding affinity fold change relative to RBD WT” value rises from -1.13 fold to 1.21 fold.

Biological target: Y453F
Assay: not given

Going from B2 to B3, the “binding affinity fold change relative to RBD WT” value rises from 1.2 fold to 1.31 fold.

Going from B1 to B4, the “binding affinity fold change relative to RBD WT” value falls from 1.32 fold to -1.31 fold.

Biological target: T2, SARS-CoV-2 RBD E484K mutant (SARS-CoV-2, UniProt P0DTC2 334-527)
Assay: not given

First: B2
Second: B3
The “binding affinity fold change relative to RBD WT” value of the first is higher: 1.07 fold for the first, 1.02 fold for the second.

Going from B1 to B4, the “binding affinity fold change relative to RBD WT” value falls from 1.29 fold to 1.15 fold.

Biological target: N501Y
Assay: not given

First: B2
Second: B3
The “binding affinity fold change relative to RBD WT” value of the first is lower: -5.79 fold for the first, -2.69 fold for the second.

First: B1
Second: B4
The “binding affinity fold change relative to RBD WT” value of the first is lower: 1.35 fold for the first, 1.37 fold for the second.

Biological target: T1, SARS-CoV-2 spike receptor-binding …
Assay: not given
Remark: another data set of the same source

Compared with B2, B3 is 1.5-fold higher in IC50: 0.63 nM for the first, 0.97 nM for the second.

Going from B1 to B4, the IC50 rises from 1.7 nM to 6.05 nM (3.6-fold).

Biological target: T1, SARS-CoV-2 spike receptor-binding …
Assay: indirect ELISA on coated RBD ('ELISA affinity')

Going from B5 to B6, the IC50 rises from 1.09 nM to 4.92 nM (4.5-fold). The first is the more potent here.

First: B7
Second: B2
The IC50 of the first is 3.2-fold higher: 1.51 nM for the first, 0.47 nM for the second. The second is the more potent here.

Going from B8 to B9, the IC50 falls from 1.15 nM to 0.24 nM (4.8-fold).

B10 and B3 are within 1.5-fold of each other in IC50: 0.35 nM for the first, 0.26 nM for the second.

First: B11
Second: B12
The IC50 of the first is 22-fold lower: 1.28 nM for the first, 28.4 nM for the second. The first is the more potent here.

First: B1
Second: B4
The IC50 of the first is 2.2-fold lower: 1.04 nM for the first, 2.28 nM for the second.

First: B13
Second: B14
The IC50 of the first is 1.5-fold higher: 0.76 nM for the first, 0.5 nM for the second. The second is the more potent here.

First: B15
Second: B16
The IC50 of the first is 4.5-fold lower: 0.89 nM for the first, 4.03 nM for the second. The first is the more potent here.

Going from B17 to B18, the IC50 falls from 0.86 nM to 0.32 nM (2.7-fold).

Going from B19 to B20, the IC50 falls from 539 nM to 0.04 nM (13000-fold). The second is the more potent here.

Biological target: T1, SARS-CoV-2 spike receptor-binding …
Assay: ELISA

B21: no binding.

Biological target: T2, SARS-CoV-2 RBD E484K mutant
Assay: ELISA

B21: no binding.

Biological target: T1, SARS-CoV-2 spike receptor-binding …
Assay: SPR (Biacore 3000), RBD immobilised

B5 gave a Kd of 0.108 nM.

B5 was tested, and the koff was 0.000624 s⁻¹.

With B5 the kon was 5.78e+06 M⁻¹ s⁻¹.

Biological target: T1, SARS-CoV-2 spike receptor-binding …
Assay: not given
Remark: another data set of the same source

For B3, the “EC50 (read off the curve)” value was ~2 nM.

Biological target: T1, SARS-CoV-2 spike receptor-binding …
Assay: not given
Remark: another data set of the same source

With B2 the “EC50 (read off the curve)” value was ~1 nM.

Biological target: N501Y
Assay: not given
Remark: another data set of the same source

With B2 the “EC50 (read off the curve)” value was ~7 nM.

Biological target: T1, SARS-CoV-2 spike receptor-binding …
Assay: not given
Remark: another data set of the same source

With B4 the “EC50 (read off the curve)” value was ~6 nM.
